# Numbering of substitutions follows the chain as printed.
# T1: tCid1 mutant 3 (Schizosaccharomyces pombe, UniProt O13833 33-405, R277A;K282A)
# T1 sequence: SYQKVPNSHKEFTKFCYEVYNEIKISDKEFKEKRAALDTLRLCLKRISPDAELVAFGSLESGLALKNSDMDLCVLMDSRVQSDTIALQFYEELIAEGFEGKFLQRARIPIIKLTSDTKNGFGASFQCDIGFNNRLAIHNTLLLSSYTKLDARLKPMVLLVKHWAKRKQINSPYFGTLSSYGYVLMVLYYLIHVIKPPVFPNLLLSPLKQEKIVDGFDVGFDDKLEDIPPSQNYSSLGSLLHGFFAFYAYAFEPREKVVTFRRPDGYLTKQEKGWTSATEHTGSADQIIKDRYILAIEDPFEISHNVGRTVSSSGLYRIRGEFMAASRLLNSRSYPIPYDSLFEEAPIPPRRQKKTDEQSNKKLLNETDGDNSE
# T2: tCid1 mutant 1 (Schizosaccharomyces pombe, UniProt O13833 33-405, K133A;R137A)
# T2 sequence: T1 sequence with K101A, R105A, A245R, A250K
# T3: tCid1 mutant 2 (Schizosaccharomyces pombe, UniProt O13833 33-405, K321A;R323A)
# T3 sequence: T1 sequence with A245R, A250K, K289A, R291A
# T4: tCid1 (wild type) (Schizosaccharomyces pombe, UniProt O13833 33-405)
# T4 sequence: T1 sequence with A245R, A250K
# B1: 21 nt SPR RNA (ssRNA)
# RNA: GAUUUGACGUUGGUUUUGACG
# Key:
# Experiment in all cases: SPR
# [1] = biological target: T1, tCid1 mutant 3
# [2] = biological target: T2, tCid1 mutant 1
# [3] = biological target: T3, tCid1 mutant 2
# [4] = biological target: T4, tCid1 (wild type)
binder,measurement,setting,value
B1,Kd,[1],~410 nM
same,Kd,[2],~200 nM
same,Kd,[3],~450 nM
same,Kd,[4],~100 nM
